T1: Pif1ΔN (Saccharomyces cerevisiae, UniProt P07271 234-859, del1-233)
T1 sequence: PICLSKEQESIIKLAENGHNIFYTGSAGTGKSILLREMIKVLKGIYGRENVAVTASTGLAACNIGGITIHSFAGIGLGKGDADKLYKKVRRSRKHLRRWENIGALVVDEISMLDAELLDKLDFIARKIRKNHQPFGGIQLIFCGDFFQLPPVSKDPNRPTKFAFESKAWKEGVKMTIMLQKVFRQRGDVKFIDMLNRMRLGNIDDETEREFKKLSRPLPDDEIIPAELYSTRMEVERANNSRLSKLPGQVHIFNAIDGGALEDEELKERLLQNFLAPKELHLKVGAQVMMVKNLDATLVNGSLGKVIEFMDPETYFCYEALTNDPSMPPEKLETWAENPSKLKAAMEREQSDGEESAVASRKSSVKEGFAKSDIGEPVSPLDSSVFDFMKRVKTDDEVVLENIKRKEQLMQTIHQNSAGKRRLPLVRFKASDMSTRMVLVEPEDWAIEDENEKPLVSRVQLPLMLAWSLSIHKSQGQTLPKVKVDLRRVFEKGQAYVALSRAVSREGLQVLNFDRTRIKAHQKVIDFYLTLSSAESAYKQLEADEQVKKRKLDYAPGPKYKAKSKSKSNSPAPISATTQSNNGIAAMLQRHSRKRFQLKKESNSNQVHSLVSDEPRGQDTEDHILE

T2: Pif1 (full-length recombinant) (Saccharomyces cerevisiae, UniProt P07271 1-859)
T2 sequence: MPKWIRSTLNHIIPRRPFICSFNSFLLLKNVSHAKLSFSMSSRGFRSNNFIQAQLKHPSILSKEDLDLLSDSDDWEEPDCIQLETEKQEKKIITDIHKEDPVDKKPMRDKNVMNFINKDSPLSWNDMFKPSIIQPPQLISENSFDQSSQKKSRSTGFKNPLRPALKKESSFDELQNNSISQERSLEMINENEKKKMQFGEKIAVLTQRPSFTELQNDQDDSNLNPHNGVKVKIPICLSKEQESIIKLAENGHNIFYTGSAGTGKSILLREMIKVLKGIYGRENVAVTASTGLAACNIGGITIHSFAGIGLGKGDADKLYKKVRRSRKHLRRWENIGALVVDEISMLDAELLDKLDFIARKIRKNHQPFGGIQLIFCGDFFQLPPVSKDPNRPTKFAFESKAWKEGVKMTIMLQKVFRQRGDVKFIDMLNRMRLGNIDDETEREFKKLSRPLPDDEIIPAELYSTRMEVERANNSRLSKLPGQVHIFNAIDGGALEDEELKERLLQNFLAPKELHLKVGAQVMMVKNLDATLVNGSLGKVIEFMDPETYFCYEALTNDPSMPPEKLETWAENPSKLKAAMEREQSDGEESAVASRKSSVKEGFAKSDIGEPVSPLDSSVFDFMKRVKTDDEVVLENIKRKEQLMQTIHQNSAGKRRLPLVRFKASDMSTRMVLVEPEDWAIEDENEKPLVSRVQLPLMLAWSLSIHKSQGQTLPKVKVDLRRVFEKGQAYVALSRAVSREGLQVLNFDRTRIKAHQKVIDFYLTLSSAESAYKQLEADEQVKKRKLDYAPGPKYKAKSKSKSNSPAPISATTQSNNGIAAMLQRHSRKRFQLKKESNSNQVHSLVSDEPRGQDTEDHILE

B1: RNA-DNA hybrid fork (MB1572/MB1571) (DNA:RNA)
DNA: GAACGCTATGTGAGTGACACTGGGTCACCACACCCACACCACACC
RNA: GGUGUGGUGUGGGUGUGGUGUGGGUCACAGUGAGUGUAUCGCAAG
modifications: MB1571 is all RNA; MB1572 is DNA

Legend:
[1] = biological target: T1, Pif1ΔN; assay: EMSA; 7.5 mM Mg2+; 25 mM HEPES pH 8.0, 5% glycerol, 50 mM NaOAc, 150 μM NaCl (so in the source), 7.5 mM MgCl2, 0.01% Tween-20; 0.2 nM DNA; 30 °C 30 min; 4 mM ATP when present (not stated per row); settings: protein: recombinant, tags: SUMO tag in expression construct (pSUMO-Pif1ΔN)
[2] = biological target: T2, Pif1 (full-length recombinant); assay: as above; settings: protein: recombinant, tags: SUMO tag in expression construct (pSUMO-Pif1)
[3] = label: 32P on helicase loading strand (5' end, T4 PNK; MB1572 implied), fork 1:26-45 2:1-20, unpaired 5' DNA arm 25 nt and 3' RNA arm 25 nt

| Binder | Kd ([1]; label: 32P (5' end, T4 PNK)) | Kd ([2]; label: 32P (5' end, T4 PNK)) | Kd [2, 3] | Kd [1, 3] |
| --- | --- | --- | --- | --- |
| CGCCATGCTGATCCGTGTGGTGTGTGTGGG (ssDNA) [Tel30] | 0.41 ± 0.031 nM | – | – | – |
| TGTGGTGTGTGTGGG (ssDNA) [Tel15] | 0.39 ± 0.058 nM | 112 ± 12.7 nM | – | – |
| B1 | – | – | 0.67 ± 0.085 nM | 0.135 ± 0.013 nM |

Source: article PMC6628001, “The Biochemical Activities of the Saccharomyces cerevisiae Pif1 Helicase Are Regulated by Its N-Terminal Domain”
